For assay [1], the target named is T1, 前列腺特异性膜抗原 (PSMA) on LNCaP cells (UniProt Q04609 1-750, limits assumed).
T1 construct: whole, on cells; Cells were fixed with 4% paraformaldehyde before the assay; also called prostate specific membrane antigen; LNCaP细胞(表达PSMA)
The assay is described as follows: cell ELISA and immunofluorescence on fixed LNCaP cells (PSMA-positive) against MKN45 cells (PSMA-negative), anti-M13 detection. A general note: In an ELISA, binding on a coated surface is turned into a signal by an enzyme label.

In another assay the target is T2, 重组表达的PSMA胞外区蛋白 (UniProt Q04609 44-750, limits assumed).
T2 construct: extracellular domain; Expressed from vector pRAG2a in HEK-293 cells, purified with HisTrap FF Crude and detected with an anti-His antibody; also called 前列腺特异性膜抗原膜外区; PSMA蛋白
T2 sequence (Q04609 44-750 limits assumed): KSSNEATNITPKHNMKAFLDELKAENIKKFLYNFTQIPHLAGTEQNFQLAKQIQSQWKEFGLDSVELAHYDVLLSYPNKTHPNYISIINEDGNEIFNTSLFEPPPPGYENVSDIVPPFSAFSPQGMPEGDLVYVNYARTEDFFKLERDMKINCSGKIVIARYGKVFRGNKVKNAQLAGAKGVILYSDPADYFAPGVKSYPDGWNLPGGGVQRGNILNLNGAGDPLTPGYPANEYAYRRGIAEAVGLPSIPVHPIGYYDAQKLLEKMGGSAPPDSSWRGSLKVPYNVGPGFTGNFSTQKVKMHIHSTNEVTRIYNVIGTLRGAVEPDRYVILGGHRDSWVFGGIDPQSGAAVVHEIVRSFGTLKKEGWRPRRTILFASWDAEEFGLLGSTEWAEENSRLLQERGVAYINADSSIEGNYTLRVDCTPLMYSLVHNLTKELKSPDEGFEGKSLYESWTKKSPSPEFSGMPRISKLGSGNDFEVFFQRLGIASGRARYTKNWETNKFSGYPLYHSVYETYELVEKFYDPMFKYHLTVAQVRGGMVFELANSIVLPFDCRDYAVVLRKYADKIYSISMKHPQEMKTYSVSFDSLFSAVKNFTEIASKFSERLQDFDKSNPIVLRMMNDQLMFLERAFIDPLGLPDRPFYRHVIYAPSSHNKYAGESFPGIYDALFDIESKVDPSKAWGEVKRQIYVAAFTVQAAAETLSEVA
Briefly: indirect phage ELISA, PSMA extracellular region coated at 5 μg/mL, HRP-anti-M13 detection.

The results in this text go back to patent publication CN105968201A (UNIV NANCHANG, dated 2016).

T1 sequence (Q04609 whole entry): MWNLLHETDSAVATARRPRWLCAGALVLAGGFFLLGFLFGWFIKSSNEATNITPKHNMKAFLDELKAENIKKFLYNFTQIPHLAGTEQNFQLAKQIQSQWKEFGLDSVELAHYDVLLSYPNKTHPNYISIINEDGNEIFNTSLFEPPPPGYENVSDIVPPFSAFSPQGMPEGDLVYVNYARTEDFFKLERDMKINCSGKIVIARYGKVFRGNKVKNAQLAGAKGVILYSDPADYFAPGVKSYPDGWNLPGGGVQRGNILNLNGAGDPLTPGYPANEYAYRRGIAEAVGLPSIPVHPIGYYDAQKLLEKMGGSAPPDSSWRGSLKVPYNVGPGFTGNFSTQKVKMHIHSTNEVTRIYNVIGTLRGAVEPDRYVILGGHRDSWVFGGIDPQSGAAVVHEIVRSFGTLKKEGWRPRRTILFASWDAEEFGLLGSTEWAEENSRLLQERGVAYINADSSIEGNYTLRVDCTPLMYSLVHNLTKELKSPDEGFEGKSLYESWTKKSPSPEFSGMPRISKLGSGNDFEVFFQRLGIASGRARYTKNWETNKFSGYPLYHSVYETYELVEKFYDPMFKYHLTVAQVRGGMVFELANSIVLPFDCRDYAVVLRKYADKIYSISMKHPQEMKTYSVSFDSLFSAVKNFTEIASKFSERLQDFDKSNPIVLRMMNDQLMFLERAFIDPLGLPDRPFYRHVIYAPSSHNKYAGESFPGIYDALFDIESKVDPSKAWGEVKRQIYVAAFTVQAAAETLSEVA

B1: 抗前列腺特异性膜抗原单域重链抗体噬菌体阳性克隆 (VHH)
VHH: QVQLVESGGGLVQAGGSLRLSCAASGRFSRYAMGWFRQAPGKEREFIASISRSGGTTYYGDSVKGRFTISRDNAKNTVYLQMNTLKAEDTAVYYCAARTKGFGLRGQYHYWGQGTQVTVSS
notes: also called 针对前列腺特异性膜抗原的单域重链抗体阳性克隆; 展示本发明所述纳米抗体的噬菌体克隆
As for B1, the binding result (in assay [1]; with 重组表达的PSMA胞外区蛋白) was “binds” each time.
